The target in the assay is endogenous PABPC1 of HEK 293T cells (human (endogenous in HEK 293T)) (UniProt P11940).
Chain of UniProt P11940 (P11940 whole entry): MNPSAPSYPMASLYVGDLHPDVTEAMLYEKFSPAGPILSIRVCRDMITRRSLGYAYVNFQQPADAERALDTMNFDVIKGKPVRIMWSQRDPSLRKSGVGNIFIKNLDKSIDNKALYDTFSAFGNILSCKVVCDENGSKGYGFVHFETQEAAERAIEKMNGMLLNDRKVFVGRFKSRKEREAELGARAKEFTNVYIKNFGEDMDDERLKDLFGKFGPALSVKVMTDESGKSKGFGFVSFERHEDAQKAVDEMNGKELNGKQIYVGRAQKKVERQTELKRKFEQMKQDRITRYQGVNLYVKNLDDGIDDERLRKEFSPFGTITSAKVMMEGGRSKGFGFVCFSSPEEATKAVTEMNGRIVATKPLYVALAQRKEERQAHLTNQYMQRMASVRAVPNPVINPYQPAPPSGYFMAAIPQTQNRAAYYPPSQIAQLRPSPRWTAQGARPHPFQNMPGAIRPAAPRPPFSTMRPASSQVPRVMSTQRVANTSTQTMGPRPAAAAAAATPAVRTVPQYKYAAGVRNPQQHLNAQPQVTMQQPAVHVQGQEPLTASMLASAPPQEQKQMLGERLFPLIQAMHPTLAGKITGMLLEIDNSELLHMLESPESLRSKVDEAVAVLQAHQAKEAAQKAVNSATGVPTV

“eIF4GI isoform d fused to MS2-HA (eIF4GId-MS2) (natural protein)”: the miniμ ter310 construct A reporter mRNA level (RT-qPCR) relative to LacZ-MS2 on tethering of eIF4GId-MS2 in HeLa cells came out at 4 fold.
For the substance “eIF4GI isoform e fused to MS2-HA (eIF4GIe-MS2) (natural protein)”, the miniμ ter310 construct A reporter mRNA level (RT-qPCR) relative to LacZ-MS2 on tethering of eIF4GIe-MS2 in HeLa cells is 4 fold.

Source of the values: publication PMC4141738.
